Results: PMC7568541

Experiments:
SIRT6(270-355) CTD = assay: EMSA; conditions: EMSA: 10 mM Tris, 50 mM NaCl (100 mM for DNA), 0.5 mM TCEP, 6% glycerol, pH 7.4, on ice, 50 nM NCP, FRET: 50 mM Tris, pH 7.5, 1 nM …
[1] = target: recombinant 601-positioned nucleosome core particle (X. laevis histones, 147-bp 601 DNA) (x. laevis); assay: native gel or EMSA
[2] = target: recombinant 601-positioned nucleosome core particle (X. laevis histones, 147-bp 601 DNA) (x. laevis); assay: native gel or EMSA; competition: SIRT6:NCP complexes pre-formed with 100 nM SIRT6, then competed with LANA peptide (300 nM to 100 µM); IC50 from percent inhibition
SIRT6 25N mutant = assay: EMSA; conditions: apparent, n=1, EMSA: 10 mM Tris, 50 mM NaCl (100 mM for DNA), 0.5 mM TCEP, 6% glycerol, pH 7.4, on ice, 50 nM NCP, FRET: 50 mM Tris, pH 7.5, 1 nM …
SIRT6 27R mutant = assay: EMSA; conditions: apparent, n=1, EMSA: 10 mM Tris, 50 mM NaCl (100 mM for DNA), 0.5 mM TCEP, 6% glycerol, pH 7.4, on ice, 50 nM NCP, FRET: 50 mM Tris, pH 7.5, 1 nM …
SIRT6(1-292) = assay: EMSA; conditions: EMSA: 10 mM Tris, 50 mM NaCl (100 mM for DNA), 0.5 mM TCEP, 6% glycerol, pH 7.4, on ice, 50 nM NCP, FRET: 50 mM Tris, pH 7.5, 1 nM …
SIRT6(1-301) = assay: EMSA; conditions: 139 nM in text, EMSA: 10 mM Tris, 50 mM NaCl (100 mM for DNA), 0.5 mM TCEP, 6% glycerol, pH 7.4, on ice, 50 nM NCP, FRET: 50 mM Tris, pH 7.5, 1 nM …
SIRT6(AAA) = assay: EMSA; conditions: EMSA: 10 mM Tris, 50 mM NaCl (100 mM for DNA), 0.5 mM TCEP, 6% glycerol, pH 7.4, on ice, 50 nM NCP, FRET: 50 mM Tris, pH 7.5, 1 nM …
SIRT6 = assay: EMSA; conditions: apparent, both complexes as bound, 50 nM NCP, EMSA: 10 mM Tris, 50 mM NaCl (100 mM for DNA), 0.5 mM TCEP, 6% glycerol, pH 7.4, on ice, FRET: 50 mM Tris, pH 7.5, 1 nM …
[3] = system: LANA peptide (Kaposi's sarcoma-associated herpesvirus); assay: competition EMSA; conditions: EMSA: 10 mM Tris, 50 mM NaCl (100 mM for DNA), 0.5 mM TCEP, 6% glycerol, pH 7.4, on ice, 50 nM NCP, FRET: 50 mM Tris, pH 7.5, 1 nM …
[4] = system: LANA peptide (Kaposi's sarcoma-associated herpesvirus); assay: competition EMSA; conditions: EMSA: 10 mM Tris, 50 mM NaCl (100 mM for DNA), 0.5 mM TCEP, 6% glycerol, pH 7.4, on ice, 50 nM NCP, FRET: 50 mM Tris, pH 7.5, 1 nM …; remark: listed apart in the source
SIRT6(TQ3) = assay: FRET; conditions: EMSA: 10 mM Tris, 50 mM NaCl (100 mM for DNA), 0.5 mM TCEP, 6% glycerol, pH 7.4, on ice, 50 nM NCP, FRET: 50 mM Tris, pH 7.5, 1 nM …
[5] = target: nucleosome core particle with four alanine mutations at the H2A acidic patch (x. laevis); assay: native gel or EMSA; 50 nM recombinant nucleosomes with varying SIRT6 protein; 10 mM Tris, 50 mM NaCl, 0.5 mM TCEP, 6% glycerol, pH 7.4, on ice >15 min; SYBR Safe; apparent KD, shifted complexes together as bound fraction, ligand-depleted (quadratic) fit
[6] = target: recombinant 601-positioned nucleosome core particle (X. laevis histones, 147-bp 601 DNA) (x. laevis); assay: as above
[7] = target: recombinant 601-positioned nucleosome core particle (X. laevis histones, 147-bp 601 DNA) (x. laevis); assay: FRET or BRET; 1 nM Cy3-labeled nucleosomes titrated with SIRT6^(TQ3) in solution; 50 mM Tris, 50 mM NaCl, 0.5 mM TCEP, pH 7.5; KD(High) fitted from 0-5 nM (ligand-depleted), KD(Low) from 5-500 nM (specific binding)
[8] = target: recombinant 601-positioned nucleosome core particle (X. laevis histones, 147-bp 601 DNA) (x. laevis); assay: native gel or EMSA; TAMRA-labeled SIRT6 with NCP; TAMRA and SYBR Safe fluorescence scanned in the same gel, TAMRA signal normalized to DNA content; gel blotted for histone H3
[9] = target: NCP with the high affinity site saturated with full-length SIRT6 (1:1 SIRT6:NCP complex) (x. laevis | not stated) (UniProt Q8N6T7); assay: native gel or EMSA; high affinity site on NCPs saturated with 10 nM full-length SIRT6, then increasing SIRT6^(1–292); fraction bound from the loss of free nucleosomes

Latency Associated Nuclear Antigen (LANA) peptide from Kaposi’s sarcoma-associated herpesvirus, sequence (Q9QR71 1-23): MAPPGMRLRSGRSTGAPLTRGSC

Substance: 601 DNA (147 bp)
- Kd (SIRT6(270-355) CTD; 100 mM NaCl, 50 nM DNA): 450 nM

Substance: Latency Associated Nuclear Antigen (LANA) peptide from Kaposi’s sarcoma-associated herpesvirus
- IC50 [1]: 6100 nM
- IC50 [2]: 9500 nM

Substance: NCP (601, 147 bp)
- Kd (SIRT6 25N mutant): 14 nM
- Kd (SIRT6 27R mutant): 14 nM
- Kd (SIRT6(1-292); 254 nM in text): 250 nM
- Kd (SIRT6(1-292)): 40 nM
- Kd (SIRT6(1-301)): 140 nM
- Kd (SIRT6(270-355) CTD): 400 nM
- Kd (SIRT6(AAA)): 97 nM
- Kd (SIRT6): 13 nM
- IC50 [3]: 9500 nM
- IC50 [4]: 6100 nM

Substance: NCP(Cy3)
- Kd (SIRT6(TQ3); high-affinity site): 0.46 nM
- Kd (SIRT6(TQ3); low-affinity site): 30 nM

Substance: SIRT6 (full-length, His-tagged) (from UniProt Q8N6T7 1-355) (enzyme)
- Kd [5]: 140 nM
- Kd [6]: 13 nM

Substance: SIRT6 C-terminal domain (residues 270–355) (from UniProt Q8N6T7 270-355) (domain or fragment)
- Kd [6]: 400 nM

Substance: SIRT6 labeled with Tide Quencher 3 (TQ3) at cysteine 18 (from UniProt Q8N6T7 2-355) (enzyme)
- KD(High), high affinity site [7]: 0.46 nM
- KD(Low), low affinity site [7]: 30 nM

Substance: SIRT6 labeled with tetramethylrhodamine (TAMRA) at cysteine 320 (from UniProt Q8N6T7 2-355) (enzyme)
- stoichiometry N [8]: 2

Substance: SIRT6 residues 1–292 (C-terminal truncation) (from UniProt Q8N6T7 1-292) (domain or fragment)
- KD(Low), low affinity site [9]: 40 nM
- Kd [6]: 250 nM
- stoichiometry N [6]: 2

Substance: SIRT6 residues 1–301 (C-terminal truncation) (from UniProt Q8N6T7 1-301) (domain or fragment)
- Kd [6]: 140 nM
- stoichiometry N [6]: 2

Substance: SIRT6 with alanine substitutions at S45, N206 and N208 (from UniProt Q8N6T7 2-355) (enzyme)
- Kd [6]: 97 nM
